These results are taken from patent publication US20140193915, “COMPOSITIONS AND METHODS FOR CUSTOM SITE-SPECIFIC DNA RECOMBINASES” (Monsanto Technology, LLC, published 2014).

Residue numbers refer to the chain shown, from its start.

Common to all, as to experiment: cell_activity; E. coli
What all share (settings): tags: 6-His

For series [1], the target named is T1, pN-TALER IV-1-EE2 (GinL7C7-EE2-TALE13) (synthetic).
T1 chain: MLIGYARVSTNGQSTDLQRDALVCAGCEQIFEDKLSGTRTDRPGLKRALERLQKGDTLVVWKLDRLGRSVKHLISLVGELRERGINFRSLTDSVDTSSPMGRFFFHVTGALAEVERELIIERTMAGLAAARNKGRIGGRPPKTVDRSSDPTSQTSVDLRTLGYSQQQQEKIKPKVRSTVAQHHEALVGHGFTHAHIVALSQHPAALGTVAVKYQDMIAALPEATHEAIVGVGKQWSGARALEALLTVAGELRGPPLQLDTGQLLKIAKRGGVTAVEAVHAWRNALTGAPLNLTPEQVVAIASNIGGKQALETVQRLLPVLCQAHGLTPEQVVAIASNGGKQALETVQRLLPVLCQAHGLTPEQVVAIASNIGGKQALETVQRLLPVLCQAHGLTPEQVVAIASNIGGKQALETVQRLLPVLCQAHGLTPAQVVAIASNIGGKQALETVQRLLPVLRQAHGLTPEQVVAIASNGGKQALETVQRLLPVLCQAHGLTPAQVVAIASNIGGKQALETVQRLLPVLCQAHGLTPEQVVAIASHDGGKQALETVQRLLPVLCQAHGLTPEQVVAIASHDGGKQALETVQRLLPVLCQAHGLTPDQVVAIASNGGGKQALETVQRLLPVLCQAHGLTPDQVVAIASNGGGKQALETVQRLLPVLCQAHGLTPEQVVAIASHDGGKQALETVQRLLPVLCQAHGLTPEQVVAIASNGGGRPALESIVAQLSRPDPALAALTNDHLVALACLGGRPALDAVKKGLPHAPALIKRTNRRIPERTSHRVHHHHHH

Another series has as its target T2, sN-TALER IV-3 (synthetic).
T2 chain: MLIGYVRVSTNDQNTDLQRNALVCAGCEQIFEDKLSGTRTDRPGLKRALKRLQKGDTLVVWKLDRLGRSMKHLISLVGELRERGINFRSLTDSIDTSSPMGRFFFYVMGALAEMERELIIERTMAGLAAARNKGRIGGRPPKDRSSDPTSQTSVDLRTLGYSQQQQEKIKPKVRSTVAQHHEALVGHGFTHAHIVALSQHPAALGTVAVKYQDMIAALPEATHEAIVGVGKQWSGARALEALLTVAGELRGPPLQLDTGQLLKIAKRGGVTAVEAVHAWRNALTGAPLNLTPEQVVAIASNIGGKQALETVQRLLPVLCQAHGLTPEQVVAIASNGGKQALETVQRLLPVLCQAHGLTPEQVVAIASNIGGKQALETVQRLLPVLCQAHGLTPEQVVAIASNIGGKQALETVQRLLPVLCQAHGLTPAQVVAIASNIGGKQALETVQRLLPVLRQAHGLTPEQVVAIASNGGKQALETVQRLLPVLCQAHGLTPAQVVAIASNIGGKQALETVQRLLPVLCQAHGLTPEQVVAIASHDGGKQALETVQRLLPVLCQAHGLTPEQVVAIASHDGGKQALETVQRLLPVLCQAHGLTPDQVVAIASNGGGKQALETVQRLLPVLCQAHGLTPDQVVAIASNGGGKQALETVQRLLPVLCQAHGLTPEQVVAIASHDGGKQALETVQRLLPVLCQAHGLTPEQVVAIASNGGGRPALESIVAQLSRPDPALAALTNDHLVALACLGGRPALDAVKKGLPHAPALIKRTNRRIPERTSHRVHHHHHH
The procedure: (§1) To test for recombination, E. coli DH5alpha cells were co-transformed with different combinations of TALER expression construct and TALER reporter construct pairs (Tables 6 and 7). The N-TALER expression and reporter constructs were in an approximate 1:1 mass ratio during the transformation. The co-transformed bacteria were plated on media with chloramphenicol, kanamycin, and X-gal then incubated at 37° C. for 18 to 36 hours. Control samples consisted of transformations using the reporter construct alone. Control transformants were similarly plated. The bacterial transformation protocol was either heat shock or electroporation per standard molecular biology techniques.

In another series the target is T3, sN-TALER IV-3.2 (synthetic).
T3 chain: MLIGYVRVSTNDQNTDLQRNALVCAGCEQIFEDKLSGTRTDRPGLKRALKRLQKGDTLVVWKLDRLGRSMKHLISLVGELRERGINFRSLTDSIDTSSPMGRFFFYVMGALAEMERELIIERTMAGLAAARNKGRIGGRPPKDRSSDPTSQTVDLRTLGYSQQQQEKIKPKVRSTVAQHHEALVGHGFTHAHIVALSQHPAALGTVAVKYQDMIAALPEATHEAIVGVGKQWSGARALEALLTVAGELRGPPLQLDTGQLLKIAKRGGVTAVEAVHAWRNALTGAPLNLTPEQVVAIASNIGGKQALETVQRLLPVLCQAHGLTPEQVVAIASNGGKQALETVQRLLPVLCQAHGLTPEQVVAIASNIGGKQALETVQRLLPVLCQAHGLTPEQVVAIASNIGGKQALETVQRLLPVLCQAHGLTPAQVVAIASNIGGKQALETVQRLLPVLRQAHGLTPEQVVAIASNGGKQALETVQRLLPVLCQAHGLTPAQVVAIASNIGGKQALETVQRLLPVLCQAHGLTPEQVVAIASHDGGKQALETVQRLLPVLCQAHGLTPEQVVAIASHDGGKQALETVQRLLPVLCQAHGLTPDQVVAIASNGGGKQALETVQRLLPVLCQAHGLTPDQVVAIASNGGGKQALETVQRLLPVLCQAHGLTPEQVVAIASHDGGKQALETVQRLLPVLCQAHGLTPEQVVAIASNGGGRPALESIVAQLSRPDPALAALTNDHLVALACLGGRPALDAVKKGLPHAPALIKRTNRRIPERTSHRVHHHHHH
Here is the method:
as §1

B1: Gin18TALE+1 (dsDNA)
DNA 1: AGAAGGTATTTATATCCAAAACCATGGTTTACAATATAAATACCTTCT
DNA 2: B1 DNA 1 with C16T, C17G, A18T, A31T, C32G, A33G
Turning to B1, the activity in series [1] was 1 score.

B2: Gin20TALE+0 (dsDNA)
DNA 1: B1 DNA 1 with A34G
DNA 2: AGAAGGTATTTATACTGTAAACCATGGTTTTGGATATAAATACCTTCT
Consider B2, for which the activity (with sN-TALER IV-3; in the series with sN-TALER IV-3.2; in series [1]) was 1 score throughout.

B3: Gin18TALE+0 (dsDNA)
DNA 1: AGAAGGTATTTATACCAAAACCATGGTTTACATATAAATACCTTCT
DNA 2: AGAAGGTATTTATATGTAAACCATGGTTTTGGTATAAATACCTTCT
On to B3, for which the activity with sN-TALER IV-3 stood at 2 score; with sN-TALER IV-3.2, 3 score; in series [1], 1 score.
